According to the supplement of paper PMC9170038:

System: MS2 coat protein
Experiment: apparent KD of MS2 coat protein; designed switch direction (-1 OFF switch, 1 ON switch): -1; higher = weaker reporter binding
In short: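 Designed RNA switches were transcribed on Illumina chips by stalled E. coli RNA polymerase and titrated with SNAP-549-labelled MS2 coat protein from 0.7 or 1.5 nM, doubling to 3 µM. Step length ran from 0.8–1.5 h at the lowest concentration to 10–20 min at the highest. The apparent KD is the median over clusters for each design, from curve-fitted normalised cluster fluorescence.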

[1] = Eterna round: R95, input ligand: FMN 200 uM
[2] = Eterna round: R95, input ligand: microRNA oligo, concentration not stated
[3] = Eterna round: R95, input ligand: none
[4] = input ligand: microRNA oligo, concentration not stated

Sequence	apparent KD of MS2 coat protein [1]	apparent KD of MS2 coat protein [2]	apparent KD of MS2 coat protein [3]	apparent KD of MS2 coat protein (input ligand: FMN 200 uM)	apparent KD of MS2 coat protein [4]	apparent KD of MS2 coat protein (input ligand: none)
AGUACUAACACGAAAGUGUUAGUACAAUAAGCUUGUAGAACAUGAGGAUCACCCAUGUCCUCAUAAGCUCGUCUUAU [Mat - Sensor v3 - Turn-off var 2 - D48] (puzzle: Sensor v3, turn-off variant 2)	52.1 nM	442 nM	53.5 nM			
UAUAGGCUAGGAUAUACAACACUUGGUUCGAAUGUUUGGAGACAUGAGGAUCACCCAUGUAGAAGGAGCAUUUC [Leleis] (Eterna round: R96, puzzle: Exclusion 2)				264 nM	54 nM	66.5 nM
CUUUUGUGAGGAUAUUAGUAGUAAAUGAAUAAAAUUAUUACUGAGAAGGUACAUGAGGAUCACCCAUGUUCCUU [Mat - Exclusion 4 - Eli Mod - D20] (Eterna round: R97, puzzle: Exclusion 4)				16.3 nM		14.3 nM
GGUGCGUUUGUGAGGAUAUGCUGGUCCUUGGUUCAGCAGAAGGCACAUGAGGAUCACCCAUGUGGUGUCGUACC [salish99_Bmod_Ex4_031] (puzzle: Brourd's mod of Exclusion 4)		145 nM				
UCGUGAUUAGAGGAUAUAUUUUGAGUCAGAACAAUAGAAGGCUAAACAUGAGGAUCACCCAUGUAAAUGUGUAA [JR_Ex6_Sub061] (Eterna round: R97, puzzle: Exclusion 6)				184 nM		34.9 nM
AGUACUAUCACGAAAGUGAUAGUACAACGAGCUUGUGAAACAUGAGGAUCACCCAUGUCCUCAUGAGUUCGUCUUAU [JL turnoff v2 67] (Eterna round: R96, puzzle: Sensor v2, turn-off variant 2)				13.9 nM	65.4 nM	15.7 nM
GAUUAUGCAAGCUUUAGGGACAUGAGGAUCACCCAUGUUCGUCUUAUUGAUCUAGGUACGCUGACGUACCUAGAUCU [JL-sv1-2.32 Brourd mod] (puzzle: Sensor v3, turn-off variant 1)	17 nM	44.6 nM	14.8 nM			
ACAGCGUGAGGAUAUACAUGAGGAUCACCCAUGUAUGGCAGGUUAUCCUGUCGUGAGUGUAGAAGGCACGCUGU [Exclusion 3 - Oddities v.5 ( A small slide from ms2 to fmn)] (puzzle: Exclusion 3)		15.4 nM				
UAGAUGUGAGGAUAUGGUAAAGAUAAGAUGAUGAAAGAACUCCAGAAGGCACAUGAGGAUCACCCAUGUAGAUG [JL-ex4-2.15 Jieux mod] (puzzle: Exclusion 4)	78.1 nM	22.3 nM	26 nM			
CAUGGAACAUAGGAUAUCUCGCGGCUAGACUGCAGAGAAGGAUGUACAUGAGGAUCACCCAUGUAUGAUCCAGU [Leisceza] (puzzle: Exclusion 6)	29.3 nM	15.8 nM	17.3 nM			
CUAAUGAUAGGAUAUACAGCGAGAGUCGACUCUGGUGCUCAACAUGAGGAUCACCCAUGUAGAAGGAUCAGACC [EX2 C.23] (Eterna round: R97, puzzle: Exclusion 2)				35.9 nM		18.6 nM
CGUUAGUGAGGAUAUGGAAAUAGGUACAUGAGGAUCACCCAUGUUUGAAGGGAAAAGAGCCUAGAAGGCACUAACG [JR_Ex5_Sub055] (Eterna round: R97, puzzle: Exclusion 5)				23.5 nM		35.2 nM
UUAGGAUCAGGAUAUGAUGUUUUUUACAUGAGGAUCACCCAUGUUGAUCCUGAUUCAACAUCAGAAGGGAUAAUUU [JR_Ex5_Sub081] (Eterna round: R97, puzzle: Exclusion 5)				85.2 nM		21.4 nM
UAUAUAUAGUAAGGAUAUGUAAUUAUUUCAUAAACAGAAGGUACUGACAUGAGGAUCACCCAUGUUUUAGUGUGGGCAUGUAGA [JMF's solution 43] (Eterna round: R96, puzzle: Exclusion NG 1)					60.2 nM	
CUGAGCAGACGGAGAUCCAACAUGAGGAUCACCCAUGUCUCAUAAGCUUUUUGCUCAUCUUAUUGUACCUUGGUGCA [Mat - Sensor v3 - turn-off var 1 - JL Mod - D21] (puzzle: Sensor v3, turn-off variant 1)	426 nM	15.6 nM	290 nM			
GUUAUGUAAGGAUAUAUGAGUCACGGUGAUACACCGUGAAGAUAGAAGGUACAUGAGGAUCACCCAUGUAAGGC [Mod of Anonveat 10 - Jieux - Exclusion 4] (Eterna round: R97, puzzle: Exclusion 4)				32.2 nM		25.4 nM
UGCGGGCUUUUGAGACCUCACAUGAGGAUCACCCAUGUGCUUGUCUUGUGGGUCGGUCGGUCGUUGGCUGGCUGGCU [-29.6, -52.1 kcal, A 10%] (Eterna round: R97, puzzle: Sensor, turn-off variant 1)				18 nM		17.8 nM

Sequence	apparent KD of MS2 coat protein [1]	apparent KD of MS2 coat protein [2]	apparent KD of MS2 coat protein [3]	apparent KD of MS2 coat protein (input ligand: FMN 200 uM)	apparent KD of MS2 coat protein [4]	apparent KD of MS2 coat protein (input ligand: none)
AGAAGUAGAAACCGAUCCUACAUGAGGAUCACCCAUGUAGCAAGACGUGCACGCGAAGCUCGUCAGACUACCAGAGG [salish99_TOv1_r3_018] (puzzle: Sensor v3, turn-off variant 1)	316 nM	124 nM	50.1 nM			
GGGCUGUCAGGAUAUGGGCCCGGGCCCGAAAGGGUUUGGGCCCAGAAGGGACAUGAGGAUCACCCAUGUGGCCC [-43.8, -42.8 kcal, A 20%, 5b-0] (Eterna round: R97, puzzle: Exclusion 4)				34.2 nM		34.5 nM
CGGUGUAGAGGAUAUACGUGGAUGUAAGUUCAUGAUAUUUUACAUGAGGAUCACCCAUGUAGAAGGCUAUAGCG [JR_Ex2_Sub079] (Eterna round: R97, puzzle: Exclusion 2)				36.2 nM		351 nM
AAUUAGUAUGUGAGGAUAUUAAUGGAAUGACUUAUUAAGAAGGCACAUGAGGAUCACCCAUGUGGGAAGUCACG [JR_BMEx4_Sub013] (Eterna round: R97, puzzle: Brourd's mod of Exclusion 4)				49.2 nM		15.6 nM
GAAGGUGAGCAGGAUAUCCGCGCACGAAUAUAAGGAGAAGGGCUUACAUGAGGAUCACCCAUGUAAGGUGGUAG [Rexequar] (puzzle: Exclusion 6)	15.8 nM	11.9 nM	11.5 nM			
AUAAAUCAUGUAGGAUAUGCGUGGCGAAGCUAUGCAGAAGGACAUGAGGAUCACCCAUGUGCUUGCGUCCGCGUACGGAUGCAA [Mat - Exclusion NG 1 - Mod of JL - D69] (Eterna round: R96, puzzle: Exclusion NG 1)				65.2 nM	155 nM	231 nM
ACAUGAGGAUCACCCAUGUCCGGCUGGUCCGUUUCGGCUGUCGAGGAUAUAGUUCGGUGUCCGCGCUAGAAGGCGGGAGCCGGC [Aenatbe mod 62] (Eterna round: R96, puzzle: Exclusion NG 3)				210 nM	80.9 nM	112 nM
AAGAAGAUCAAAGGAUAUGGAGCUGAAACGGAGCUAGAAGGUUGUCUAGUUUAACAUGAGGAUCACCCAUGUAGGUACCUCUAA [AK ExNG1-V2-1] (Eterna round: R96, puzzle: Exclusion NG 1)				850 nM	719 nM	713 nM
GCCUUAUCUGUCAGGAUAUACAAUAAAAUAAUUAAGUAGAAGGGACAUGAGGAUCACCCAUGUACAUUACAUUG [alecazam26] (Eterna round: R97, puzzle: Brourd's mod of Exclusion 4)				67.4 nM		17.9 nM
CACCGUUACGUAGGAUAUAGUACAUGAGGAUCACCCAUGUAAUAAAUGAGAAUUUCGGAUGUAUGCUAGAAGGACGAAAUCGGC [Ostricism 50 - Jieux - Exclusion NG 2] (Eterna round: R96, puzzle: Exclusion NG 2)					39.9 nM	
CCUCAUAUUUAGGAUAUGAUUGGUAAUUAUUAGUUAGAAGGAGAUACAUGAGGAUCACCCAUGUAAUAUUUAAA [-11.7, -11.3 kcal, 36% A] (Eterna round: R97, puzzle: Exclusion 6)				20.3 nM		19.5 nM
GAAUAGGCAGGAUAUACAUGAGGAUCACCCAUGUGCUUGCGAUAGGCACGUGAACAACGUAGAAGGGCCUUAAC [ChP 13.04.2015 #12] (Eterna round: R96, puzzle: Exclusion 3)				184 nM	30.8 nM	34.9 nM
AAUAAGCGAGGAUAUACUAUUCCUCGACCGGCAGAAACCGGACUUGAGGAUCACCCAAGUAGAAGGCGCAAAAC [Oninso] (Eterna round: R97, puzzle: Exclusion 2)				448 nM		32.8 nM
CGUGCGUAUGUGAGGAUAUGCUGGUCCUUGGAUCGGCAGAAGGCACAUGAGGAUCACCCAUGUGGUGUCGUACG [salish99_Bmod_ex4_080] (puzzle: Brourd's mod of Exclusion 4)		374 nM				
CUUUAGUGAGGAUAUGUGGCUUCGAUCGUGAGAUCGAGGCUACAGAAGGCACAUGAGGAUCACCCAUGUUCCUC [jl-ex4-4.01 salish99 mod] (Eterna round: R97, puzzle: Exclusion 4)				464 nM		34.1 nM
UCCUCACAUGAGGAUCACCCAUGUCAGGAUAUCCAACAUGCUCCCAAAACCACGCAUCGGAGAAGGGACAUGCA [EX1 A.6] (Eterna round: R97, puzzle: Exclusion 1)				21.7 nM		17.7 nM
